{"source": "patent US20200093922A1", "about": "(AGENCY FOR SCIENCE TECHNOLOGY AND RESEARCH, published 2020)", "key": {"[1]": {"target": "T1, biotinylated human PD-L1 (human, UniProt Q9NZQ7 19-238, limits assumed, biotinylated (site not stated))", "T1 sequence (Q9NZQ7 19-238 limits assumed)": "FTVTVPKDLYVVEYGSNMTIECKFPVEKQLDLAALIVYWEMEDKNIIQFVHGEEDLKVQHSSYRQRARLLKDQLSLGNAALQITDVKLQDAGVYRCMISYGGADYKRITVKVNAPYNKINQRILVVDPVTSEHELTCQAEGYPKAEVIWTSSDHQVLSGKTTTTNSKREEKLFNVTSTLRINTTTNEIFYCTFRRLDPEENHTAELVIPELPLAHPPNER", "experiment": "ELISA: antibody coated at 2 ug/mL, biotinylated human PD-L1 titrated (x axis Human PD-L1, nM), streptavidin-HRP", "description": "Binding was measured by ELISA. Antibodies were coated onto maxisorp plates at 2 μg/mL in coating buffer and incubated overnight at 4° C. The next day, plates were washed with wash buffer (PBS+0.05% Tween-20), and blocker with casein for 1 hour, at room temperature. Plates were then washed again using wash buffer. […] Plates were then washed again using wash buffer. […] Plates were then washed again using wash buffer. Finally, TMB was added to develop the ELISA; TMB conversion by HRP was stopped using 1M H-Cl."}, "[2]": {"target": "PD-L1 (blocking ELISA of Example 13) (Homo sapiens (Human), UniProt Q9NZQ7 19-238)", "sequence (Q9NZQ7 19-238 limits assumed)": "as above", "experiment": "blocking ELISA: antibody pre-incubated with PD-L1, added to coated PD-1 (blocked partner), PD-1-bound PD-L1 detected"}, "[3]": {"target": "T1, biotinylated human PD-L1", "experiment": "avidity ELISA: biotinylated human PD-L1 at 0.2 ug/mL on neutravidin, antibody titrated (x axis IgG, nM), anti-human Fc-HRP", "description": "Neutravidin was coated onto maxisorp plates at 2 μg/mL in coating buffer and incubated overnight at 4° C. The next day, plates were washed with wash buffer (PBS+0.05% Tween-20), and blocker with casein for 1 hour, at room temperature. Plates were then washed again using wash buffer. […] Plates were then washed again using wash buffer. The different antibodies were then added at various concentrations, and incubated for 1 hour at room temperature. Plates were then washed again using wash buffer. Anti-human Fc-HRP was then added and incubated for 1 hour at room temperature. Plates were then washed again using wash buffer. Finally, TMB was added to develop the ELISA; TMB conversion by HRP was stopped using 1M H-Cl."}, "[4]": {"target": "T2, PD-L1 on MDA-MB-231 human breast cancer cells (human, UniProt Q9NZQ7 19-290)", "T2 construct": "whole, on cells; also called cells expressing PD-L1", "T2 sequence (Q9NZQ7 19-290)": "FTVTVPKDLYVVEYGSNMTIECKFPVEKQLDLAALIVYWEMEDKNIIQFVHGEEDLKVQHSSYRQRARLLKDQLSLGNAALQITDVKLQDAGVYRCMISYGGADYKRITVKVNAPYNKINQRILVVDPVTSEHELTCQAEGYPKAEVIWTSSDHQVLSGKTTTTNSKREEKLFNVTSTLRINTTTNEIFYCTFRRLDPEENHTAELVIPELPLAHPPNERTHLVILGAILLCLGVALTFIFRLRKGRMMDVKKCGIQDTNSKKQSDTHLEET", "experiment": "flow cytometry on MDA-MB-231 cells expressing PD-L1, MFI against IgG1 (nM)"}, "[5]": {"target": "biotinylated murine PD-L1 (murine, UniProt Q9EP73 19-238, limits assumed, biotinylated (site not stated))", "sequence (Q9EP73 19-238 limits assumed)": "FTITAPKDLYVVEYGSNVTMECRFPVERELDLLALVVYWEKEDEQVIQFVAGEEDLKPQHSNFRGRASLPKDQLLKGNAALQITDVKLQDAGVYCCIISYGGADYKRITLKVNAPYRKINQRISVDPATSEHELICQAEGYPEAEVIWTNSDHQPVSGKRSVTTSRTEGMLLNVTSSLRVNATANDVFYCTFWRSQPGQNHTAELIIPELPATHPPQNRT", "experiment": "blocking ELISA of murine PD-L1 binding to murine PD-1 (blocked partner), Example 3"}, "[6]": {"target": "T3, human PD-L1 expressed on transfected HEK 293 cells (human, UniProt Q9NZQ7 19-290)", "T3 construct": "whole, on cells; also called PD-L1 transfected cells; HEK293-6E cells transfected with human PD-L1", "T3 sequence (Q9NZQ7 19-290)": "as the sequence (Q9NZQ7 19-290) above", "experiment": "flow cytometry blocking assay: antibody mixed with human PD-1-PE (blocked partner), added to HEK293 cells transfected with human PD-L1", "description": "Cells were washed 3 times with PBS and all data were collected on a BD FACSCanto II (BD Bioscience) and analysed on BD FACSDiva software (BD Bioscience)."}}, "data": [{"binder": "anti-PD-L1 antibody C4 (format not stated) (antibody, V domains shown) VH: QVQLQQSGAEVKKPGSSVKVSCKASGGTFSSYAISWVRQAPGQGLEWMGRIIPILGIANYAQKFQGRVTITADKSTSTAYMELSSLRSEDTAVYYCARGGYGGNSLYAFDIWGQGTMVTVSS VL: QSVVTQPPSVSAAPGQKVTISCSGSSSNIGNNYVSWYQQLPGTAPKLLIYDNNERLSGIPDRFSGSKSGTSATLGISGLQTGDEADYYCGTWDSSLSVVVFGGGTKLTVL", "values": [{"measurement": "EC50 (read off the curve)", "setting": "[1]", "value": "~0.8", "unit": "nM"}, {"measurement": "IC50 (read off the curve)", "setting": "[2]", "value": "~2", "unit": "nM"}, {"measurement": "EC50 (read off the curve)", "setting": "[3]", "value": "~1", "unit": "nM"}]}, {"binder": "anti-PD-L1 antibody H12 in IgG1 format (antibody, V domains shown, IgG1; also called H12 (IgG1); H12-IgG1) VH: EVQLVQSGAEVKKPGASVKVSCKASGGTFSSYAISWVRQAPGQGLEWMGRIIPILGIANYAQKFQGRVTITADKSTSTAYMELSSLRSEDTAVYYCARSGHGYSYGAFDYWGQGTL VL: QSVLTQPPSVSGAPGQRVTISCTGSSSNIGAGYDVHWYQQLPGTAPKLLIYGNSNRPSGVPDRFSGSKSGTSASLAITGLQAEDEADYYCQSYDSSLSGSYVVFGGGTKLTVL", "values": [{"measurement": "EC50 (read off the curve)", "setting": "[4]", "value": "~200", "unit": "nM"}, {"measurement": "IC50 (read off the curve)", "setting": "[5]", "value": "~1", "unit": "nM"}, {"measurement": "IC50 (read off the curve)", "setting": "[6]", "value": "~8", "unit": "nM"}]}]}
